Like-named read-outs stand apart in the source and are kept apart here.
Key:
[1] = molecular target: CD38 on cells (Raji, Daudi, REH, CD38-transfected HEK293) (human) (UniProt P28907); test: flow cytometry, Raji cells expressing CD19 and CD38
[2] = molecular target: CD38 on cells (Raji, Daudi, REH, CD38-transfected HEK293) (human) (UniProt P28907); test: as above; remark: listed apart in the source
[3] = molecular target: CD38 on cells (Raji, Daudi, REH, CD38-transfected HEK293) (human) (UniProt P28907); test: flow cytometry, Raji cells; top asymptote fixed at about the maximum response of Darzalex

Darzalex ® (CD38 control) (antibody)
EC50 [1]: 1.27 nM | EC50 [2]: 0.195 µg/mL | Max MFI [2]: 4.02e+06 MFI | Adjusted EC50 [3]: 1.27 nM

Reference: patent publication US20220185908A1
